Test results as given in patent US5891673, “Lck binding protein” (Syntex (U.S.A.) Inc., dated 1999).

B1: GST-LckBP1-#5 (other)
chain: MEAPTTAYKKTTPIEAASSGARGLKAKFESLAEEKRKREEEEKAQQMARQQQERKAVVKMSREVQQ
B2: GST-LckBP1-#4 (other)
chain: MEAPTTAYKKTTPIEAASSGARGLKAKFESLAEEKRKREEEEKAQQMARQQQERKAVVKMSREVQQPSMPVEEPAAPAQLPKKISSEVWPPAESHLPPESQPVRSRREYPVPSLPTRQSPL
B3: GST-LckBP1-#8 (other)
chain: AIALYDYQGEGSDELSFDPDDIITDIEMVDEGWWRGQCRGHFGLFPANYVKLL

Biological target: biotinylated GST (Schistosoma japonicum (Blood fluke), UniProt P08515 = GST, biotinylated (sites not given))
Assay: blot of GST-LckBP1 deletion mutants probed with biotinylated GST
Description: DNA deletion fragments were obtained by PCR, and subcloned into the pGEX-2T vector (FIG. 7). The fusion proteins produced in *E. coli* were subjected to SDS-PAGE, transferred to a nitrocellulose filter, and probed with biotinylated GST or GST-Lck SH3 protein.

| Binder | binding result |
| --- | --- |
| B1 | no binding |
| B2 | no binding |
| B3 | no binding |
